According to the supplement of paper PMC5998384:

Columns and labels:
[1] = tested on: HeLa Kyoto; assay: solubility change mitosis vs G1/S (difference of NP-40 vs SDS log2 ratios) (log2 ratio difference); higher = more soluble in mitosis
[2] = tested on: HeLa Kyoto; assay: melting temperature (median over replicates), in situ; higher = more thermally stable
[3] = tested on: HeLa Kyoto; assay: solubility in G1/S (NP-40 vs SDS abundance) (log2 ratio); higher = more soluble; details: cell cycle stage: G1/S
[4] = tested on: HeLa Kyoto; assay: thermal stability score vs G1/S (z-score of summed log2 fold changes over temperatures); higher = more thermally stable than in G1/S
[5] = cell cycle stage: early G1 (4.5 h after nocodazole release)
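For melting temperature (median over replicates), in situ in this document: HeLa Kyoto cells synchronized by double thymidine or nocodazole block, proteins quantified by TMT10plex mass spectrometry, three independent biological replicates.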
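For solubility change mitosis vs G1/S (difference of NP-40 vs SDS log2 ratios) in this document: synchronized HeLa Kyoto cells (double thymidine block for G1/S, nocodazole release for mitosis), protein amounts in NP-40 versus SDS lysates quantified by mass spectrometry, three biological replicates.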
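For solubility in G1/S (NP-40 vs SDS abundance) in this document: HeLa Kyoto cells arrested at G1/S by double thymidine block, proteins quantified by TMT10plex mass spectrometry in mild NP-40 versus SDS extracts, three biological replicates.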
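For thermal stability score vs G1/S (z-score of summed log2 fold changes over temperatures) in this document: synchronized HeLa Kyoto cells, proteins quantified by TMT10plex mass spectrometry, three biological replicates, mitosis taken 0.5 h after nocodazole release, G1/S directly after double thymidine block.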

Row | Sequence | solubility change mitosis (log2) [1] | melting temperature ([2]; cell cycle stage: G1/S) | melting temperature ([2]; cell cycle stage: mitosis) | solubility in G1/S (log2) [3] | thermal stability score [4, 5] | thermal stability score ([4]; cell cycle stage: mitosis)
1 | MACAEFSFHVPSLEELAGVMQKGLKDNFADVQVSVVDCPDLTKEPFTFPVKGICGKTRIAEVGGVPYLLPLVNQKKVYDLNKIAKEIKLPGAFILGAGAGPFQTLGFNSEFMPVIQTESEHKPPVNGSYFAHVNPADGGCLLEKYSEKCHDFQCALLANLFASEGQPGKVIEVKAKRRTGPLNFVTCMRETLEKHYGNKPIGMGGTFIIQKGKVKSHIMPAEFSSCPLNSDEEVNKWLHFYEMKAPLVCLPVFVSRDPGFDLRLEHTHFFSRHGEGGHYHYDTTPDIVEYLGYFLPAEFLYRIDQPKETHSIGRD [C11ORF54] | -0.126 | 55.7 °C | 56.3 °C | 0.72 | -2.98 | -4.1
2 | MADAWEEIRRLAADFQRAQFAEATQRLSERNCIEIVNKLIAQKQLEVVHTLDGKEYITPAQISKEMRDELHVRGGRVNIVDLQQVINVDLIHIENRIGDIIKSEKHVQLVLGQLIDENYLDRLAEEVNDKLQESGQVTISELCKTYDLPGNFLTQALTQRLGRIISGHIDLDNRGVIFTEAFVARHKARIRGLFSAITRPTAVNSLISKYGFQEQLLYSVLEELVNSGRLRGTVVGGRQDKAVFVPDIYSRTQSTWVDSFFRQNGYLEFDALSRLGIPDAVSYIKKRYKTTQLLFLKAACVGQGLVDQVEASVEEAISSGTWVDIAPLLPTSLSVEDAAILLQQVMRAFSKQASTVVFSDTVVVSEKFINDCTELFRELMHQKAEKEMKNNPVHLITEEDLKQISTLESVSTSKKDKKDERRRKATEGSGSMRGGGGGNAREYKIKKVKKKGRKDDDSDDESQSSHTGKKKPEISFMFQDEIEDFLRKHIQDAPEEFISELAEYLIKPLNKTYLEVVRSVFMSSTTSASGTGRKRTIKDLQEEVSNLYNNIRLFEKGMKFFADDTQAALTKHLLKSVCTDITNLIFNFLASDLMMAVDDPAAITSEIRKKILSKLSEETKVALTKLHNSLNEKSIEDFISCLDSAAEACDIMVKRGDKKRERQILFQHRQALAEQLKVTEDPALILHLTSVLLFQFSTHSMLHAPGRCVPQIIAFLNSKIPEDQHALLVKYQGLVVKQLVSQSKKTGQGDYPLNNELDKEQEDVASTTRKELQELSSSIKDLVLKSRKSSVTEE [UFL1] | -0.0952 | 50 °C | 49.8 °C | -0.013 | 1.14 | 2.59
3 | MADDAGLETPLCSEQFGSGEARGCRAAADGSLQWEVGGWRWWGLSRAFTVKPEGRDAGEVGASGAPSPPLSGLQAVFLPQGFPDSVSPDYLPYQLWDSVQAFASSLSGSLATQAVLLGIGVGNAKATVSAATATWLVKDSTGMLGRIVFAWWKGSKLDCNAKQWRLFADILNDVAMFLEIMAPVYPICFTMTVSTSNLAKCIVSVAGGATRAALTVHQARRNNMADVSAKDSSQETLVNLAGLLVSLLMLPLVSGCPGFSLGCFFFLTALHIYANYRAVRALVMETLNEGRLRLVLKHYLQRGEVLDPTAANRMEPLWTGFWPAPSLSLGVPLHRLVSSVFELQQLVEGHQESYLLCWDQSQNQVQVVLNQKAGPKTILRAATHGLMLGALQGDGPLPAELEELRNRVRAGPKKESWVVVKETHEVLDMLFPKFLKGLQDAGWKTEKHQLEVDEWRATWLLSPEKKVL [C16ORF58] | -0.031 | 53.7 °C | 53.8 °C | -0.224 | -0.365 | 0.0232
4 | MADEAALALQPGGSPSAAGADREAASSPAGEPLRKRPRRDGPGLERSPGEPGGAAPEREVPAAARGCPGAAAAALWREAEAEAAAAGGEQEAQATAAAGEGDNGPGLQGPSREPPLADNLYDEDDDDEGEEEEEAAAAAIGYRDNLLFGDEIITNGFHSCESDEEDRASHASSSDWTPRPRIGPYTFVQQHLMIGTDPRTILKDLLPETIPPPELDDMTLWQIVINILSEPPKRKKRKDINTIEDAVKLLQECKKIIVLTGAGVSVSCGIPDFRSRDGIYARLAVDFPDLPDPQAMFDIEYFRKDPRPFFKFAKEIYPGQFQPSLCHKFIALSDKEGKLLRNYTQNIDTLEQVAGIQRIIQCHGSFATASCLICKYKVDCEAVRGDIFNQVVPRCPRCPADEPLAIMKPEIVFFGENLPEQFHRAMKYDKDEVDLLIVIGSSLKVRPVALIPSSIPHEVPQILINREPLPHLHFDVELLGDCDVIINELCHRLGGEYAKLCCNPVKLSEITEKPPRTQKELAYLSELPPTPLHVSEDSSSPERTSPPDSSVIVTLLDQAAKSNDDLDVSESKGCMEEKPQEVQTSRNVESIAEQMENPDLKNVGSSTGEKNERTSVAGTVRKCWPNRVAKEQISRRLDGNQYLFLPPNRYIFHGAEVYSDSEDDVLSSSSCGSNSDSGTCQSPSLEEPMEDESEIEEFYNGLEDEPDVPERAGGAGFGTDGDDQEAINEAISVKQEVTDMNYPSNKS [SIRT1] | -0.0419 | 50.2 °C | 50.1 °C | -0.0978 | 0.328 | 2.02
5 | MADEDLIFRLEGVDGGQSPRAGHDGDSDGDSDDEEGYFICPITDDPSSNQNVNSKVNKYYSNLTKSERYSSSGSPANSFHFKEAWKHAIQKAKHMPDPWAEFHLEDIATERATRHRYNAVTGEWLDDEVLIKMASQPFGRGAMRECFRTKKLSNFLHAQQWKGASNYVAKRYIEPVDRDVYFEDVRLQMEAKLWGEEYNRHKPPKQVDIMQMCIIELKDRPGKPLFHLEHYIEGKYIKYNSNSGFVRDDNIRLTPQAFSHFTFERSGHQLIVVDIQGVGDLYTDPQIHTETGTDFGDGNLGVRGMALFFYSHACNRICESMGLAPFDLSPRERDAVNQNTKLLQSAKTILRGTEEKCGSPQVRTLSGSRPPLLRPLSENSGDENMSDVTFDSLPSSPSSATPHSQKLDHLHWPVFSDLDNMASRDHDHLDNHRESENSGDSGYPSEKRGELDDPEPREHGHSYSNRKYESDEDSLGSSGRVCVEKWNLLNSSRLHLPRASAVALEVQRLNALDLEKKIGKSILGKVHLAMVRYHEGGRFCEKGEEWDQESAVFHLEHAANLGELEAIVGLGLMYSQLPHHILADVSLKETEENKTKGFDYLLKAAEAGDRQSMILVARAFDSGQNLSPDRCQDWLEALHWYNTALEMTDCDEGGEYDGMQDEPRYMMLAREAEMLFTGGYGLEKDPQRSGDLYTQAAEAAMEAMKGRLANQYYQKAEEAWAQMEE [EEF2K] | -0.158 | 47.7 °C | 48.4 °C | 0.0328 | 0.84 | 1.21
6 | MADEIAKAQVARPGGDTIFGKIIRKEIPAKIIFEDDRCLAFHDISPQAPTHFLVIPKKHISQISVAEDDDESLLGHLMIVGKKCAADLGLNKGYRMVVNEGSDGGQSVYHVHLHVLGGRQMHWPPG [HINT1] | 0.17 | 56.4 °C | 56 °C | 0.25 | -5.39 | -4.12
7 | MADESETAVKPPAPPLPQMMEGNGNGHEHCSDCENEEDNSYNRGGLSPANDTGAKKKKKKQKKKKEKGSETDSAQDQPVKMNSLPAERIQEIQKAIELFSVGQGPAKTMEEASKRSYQFWDTQPVPKLGEVVNTHGPVEPDKDNIRQEPYTLPQGFTWDALDLGDRGVLKELYTLLNENYVEDDDNMFRFDYSPEFLLWALRPPGWLPQWHCGVRVVSSRKLVGFISAIPANIHIYDTEKKMVEINFLCVHKKLRSKRVAPVLIREITRRVHLEGIFQAVYTAGVVLPKPVGTCRYWHRSLNPRKLIEVKFSHLSRNMTMQRTMKLYRLPETPKTAGLRPMETKDIPVVHQLLTRYLKQFHLTPVMSQEEVEHWFYPQENIIDTFVVENANGEVTDFLSFYTLPSTIMNHPTHKSLKAAYSFYNVHTQTPLLDLMSDALVLAKMKGFDVFNALDLMENKTFLEKLKFGIGDGNLQYYLYNWKCPSMGAEKVGLVLQ [NMT1] | 0.1 | 53.9 °C | 53.5 °C | -0.131 | -0.333 | -0.823
8 | MADGDSGSERGGGGGPCGFQPASRGGGEQETQELASKRLDIQNKRFYLDVKQNAKGRFLKIAEVGAGGSKSRLTLSMAVAAEFRDSLGDFIEHYAQLGPSSPEQLAAGAEEGGGPRRALKSEFLVRENRKYYLDLKENQRGRFLRIRQTVNRGGGGFGAGPGPGGLQSGQTIALPAQGLIEFRDALAKLIDDYGGEDDELAGGPGGGAGGPGGGLYGELPEGTSITVDSKRFFFDVGCNKYGVFLRVSEVKPSYRNAITVPFKAWGKFGGAFCRYADEMKEIQERQRDKLYERRGGGSGGGEESEGEEVDED [PURB] | 0.0319 | 54.2 °C | 54.1 °C | 0.381 | -1.12 | -5.37
9 | MADGGSERADGRIVKMEVDYSATVDQRLPECAKLAKEGRLQEVIETLLSLEKQTRTASDMVSTSRILVAVVKMCYEAKEWDLLNENIMLLSKRRSQLKQAVAKMVQQCCTYVEEITDLPIKLRLIDTLRMVTEGKIYVEIERARLTKTLATIKEQNGDVKEAASILQELQVETYGSMEKKERVEFILEQMRLCLAVKDYIRTQIISKKINTKFFQEENTEKLKLKYYNLMIQLDQHEGSYLSICKHYRAIYDTPCIQAESEKWQQALKSVVLYVILAPFDNEQSDLVHRISGDKKLEEIPKYKDLLKLFTTMELMRWSTLVEDYGMELRKGSLESPATDVFGSTEEGEKRWKDLKNRVVEHNIRIMAKYYTRITMKRMAQLLDLSVDESEAFLSNLVVNKTIFAKVDRLAGIINFQRPKDPNNLLNDWSQKLNSLMSLVNKTTHLIAKEEMIHNLQ [PSMD12] | -0.104 | 52.3 °C | 51.6 °C | 0.0925 | 2.61 | 2.56
10 | MADHVQSLAQLENLCKQLYETTDTTTRLQAEKALVEFTNSPDCLSKCQLLLERGSSSYSQLLAATCLTKLVSRTNNPLPLEQRIDIRNYVLNYLATRPKLATFVTQALIQLYARITKLGWFDCQKDDYVFRNAITDVTRFLQDSVEYCIIGVTILSQLTNEINQADTTHPLTKHRKIASSFRDSSLFDIFTLSCNLLKQASGKNLNLNDESQHGLLMQLLKLTHNCLNFDFIGTSTDESSDDLCTVQIPTSWRSAFLDSSTLQLFFDLYHSIPPSFSPLVLSCLVQIASVRRSLFNNAERAKFLSHLVDGVKRILENPQSLSDPNNYHEFCRLLARLKSNYQLGELVKVENYPEVIRLIANFTVTSLQHWEFAPNSVHYLLSLWQRLAASVPYVKATEPHMLETYTPEVTKAYITSRLESVHIILRDGLEDPLEDTGLVQQQLDQLSTIGRCEYEKTCALLVQLFDQSAQSYQELLQSASASPMDIAVQEGRLTWLVYIIGAVIGGRVSFASTDEQDAMDGELVCRVLQLMNLTDSRLAQAGNEKLELAMLSFFEQFRKIYIGDQVQKSSKLYRRLSEVLGLNDETMVLSVFIGKIITNLKYWGRCEPITSKTLQLLNDLSIGYSSVRKLVKLSAVQFMLNNHTSEHFSFLGINNQSNLTDMRCRTTFYTALGRLLMVDLGEDEDQYEQFMLPLTAAFEAVAQMFSTNSFNEQEAKRTLVGLVRDLRGIAFAFNAKTSFMMLFEWIYPSYMPILQRAIELWYHDPACTTPVLKLMAELVHNRSQRLQFDVSSPNGILLFRETSKMITMYGNRILTLGEVPKDQVYALKLKGISICFSMLKAALSGSYVNFGVFRLYGDDALDNALQTFIKLLLSIPHSDLLDYPKLSQSYYSLLEVLTQDHMNFIASLEPHVIMYILSSISEGLTALDTMVCTGCCSCLDHIVTYLFKQLSRSTKKRTTPLNQESDRFLHIMQQHPEMIQQMLSTVLNIIIFEDCRNQWSMSRPLLGLILLNEKYFSDLRNSIVNSQPPEKQQAMHLCFENLMEGIERNLLTKNRDRFTQNLSAFRREVNDSMKNSTYGVNSNDMMS [XPO7] | -0.207 | 52.2 °C | 52.2 °C | -0.0594 | 0.0845 | 0.043
11 | MADKQISLPAKLINGGIAGLIGVTCVFPIDLAKTRLQNQQNGQRVYTSMSDCLIKTVRSEGYFGMYRGAAVNLTLVTPEKAIKLAANDFFRHQLSKDGQKLTLLKEMLAGCGAGTCQVIVTTPMEMLKIQLQDAGRIAAQRKILAAQGQLSAQGGAQPSVEAPAAPRPTATQLTRDLLRSRGIAGLYKGLGATLLRDVPFSVVYFPLFANLNQLGRPASEEKSPFYVSFLAGCVAGSAAAVAVNPCDVVKTRLQSLQRGVNEDTYSGILDCARKILRHEGPSAFLKGAYCRALVIAPLFGIAQVVYFLGIAESLLGLLQDPQA [SLC25A22] | -0.111 | 56.1 °C | 55.4 °C | 0.299 | 0.207 | -1.95
